Source: US8217140B2, “Peptides capable of binding to serum proteins and compounds, constructs and polypeptides comprising the same” (Ablynx N.V., priority 2008, dated 2012)
Numbering of substitutions follows the chain as printed. Where two headings read alike, the source gives them in different places.

B1: 2D3-56H5: SEQ ID NO: 139, fusion of Nanobody 2D3 and peptide 56H5 with Myc-His tag (protein)
chain: EVQLVESGGSLVQPGGSLRLSCAASGFTFDDYAMSWVRQVPGKGLEWVSSINWSGTHTDYADSVKGRFTISRNNANNTLYLQMNSLKSEDTAVYYCAKNWRDAGTTWFEKSGSAGQGTQVTVSSGGGGSGGGSAAAFYDDYDVFGGGTPAGGAAAEQKLISEEDLNGAAHHHHHH
modifications: Myc-His tag; fusion protein
B2: 2D3-9GS-EXP56E4: SEQ ID NO: 142, fusion of peptide 56E4 and Nanobody 2D3 via 9GS linker (protein)
chain: EVQLVESGGSLVQPGGSLRLSCAASGFTFDDYAMSWVRQVPGKGLEWVSSINWSGTHTDYADSVKGRFTISRNNANNTLYLQMNSLKSEDTAVYYCAKNWRDAGTTWFEKSGSAGQGTQVTVSSGGGGSGGGSRYWDYDVFGGGTPVGG
B3: 2D3-9GS-59C2: SEQ ID NO: 164, 59C2 without the two N-terminal alanines fused via 9GS linker to C-terminus of 2D3 (protein)
chain: B2 chain with Y135D, Y138F

Legend:
[1] = biological target: T1, human serum albumin (Homo sapiens, UniProt P02768); assay: Co-crystal structure and in silico modelling of peptide with human serum albumin; settings: crystal structure and modeling data
Experimental: The crystal structure was determined as follows: the purified proteins were used in crystallization trials employing both, a standard screen of approximately 1200 different conditions, as well as crystallization conditions identified using literature data. Conditions initially obtained have been optimized using standard strategies, systematically varying parameters critically influencing crystallization, such as temperature, protein concentration, drop ratio, etc. These conditions were also refined by systematically varying pH or precipitant concentrations. Crystals were obtained via the method of co-crystallization.
Crystals have been flash-frozen and measured at a temperature of 100K. The X-ray diffraction have been collected at the SWISS LIGHT SOURCE (SLS, Villigen, Switzerland) using cryogenic conditions. Data were processed using the programs XDS and XSCALE. The phase information necessary to determine and analyze the structure was obtained by molecular replacement. Subsequent model building and refinement was performed with the software packages CCP4 and COOT. The peptide parameterization was carried out with the program […].
Modeling of the interaction was performed using ICM-Pro (Molsoft) and Discovery Studio (Accelrys) with a force-field that is based on the parameters as described in Momany et al. (Momany et al. J. Phys. Chem. 1975, 79, 2361-2381)

[2] = biological target: T1, human serum albumin; assay: Phage ELISA on HSA-coated plates; type: binding; settings: phage clones; near-infrared fluorescence intensity vs phage dilution, FIG. 2
Experimental: 5-fold serial dilutions of phage clones (starting from ˜5×10^11 phage) were added to 96-well Nunc Maxisorp plates coated with human serum albumin (2 μg/ml in PBS, overnight at 4° C.; plates were blocked with Superblock T20 (Pierce) for 1 h at room temperature). The microtiter plate was washed with wash buffer (PBS, 0.05% Tween 20) and bound phages were detected with anti-M13 and goat-anti mouse IRDye conjugate (610-130-121, Rockland). The amount of IRDye bound was measured on Odyssey (LI-COR Biosciences). The dilution of phage was plotted against measured near-infrared fluorescence intensity (FIG. 2).

[3] = test system: irrelevant protein antigen; assay: Surface plasmon resonance control on chip coated with irrelevant protein, Example 6; type: binding; settings: 5 μM injected; CM5 chip coated with irrelevant protein (2400RU)
Experimental: (§1) The binding of the resulting 2D3-17D12 and 2D3-56H5 fusion proteins to human serum albumin was determined using surface plasmon resonance analysis. For this purpose, the fusion proteins were expressed in E. coli TG1 cells. The fusion proteins were purified by IMAC/SEC and binding to HSA was assessed in BIAcore™ 3000, by injecting 1 μM and 5 μM of the 2D3-17D12 and 2D3-56H5 fusion proteins on a CM5 chip coated with ˜7000 RU human serum albumin (Sigma, 99% pure) and 2460 RU an irrelevant protein antigen (reference). Coating of the chip (CM5) was performed by amine coupling using NHS/EDC for activation and ethanolamine for deactivation (Biacore amine coupling kit). HBS-EP was used as flow buffer at a rate of […]. 20 μl of sample was injected for 120 s. The 2D3 Nanobody was injected as control.

[4] = biological target: T1, human serum albumin; assay: Surface plasmon resonance (BIAcore 3000) of 2D3 fusion proteins, Example 6; type: binding
Experimental: as §1

[5] = Pharmacokinetic profile in male cynomolgus monkeys: monovalent Nanobody 2D3 constructs; type: in vivo, Cynomolgus monkey; settings: for exposure higher and total body clearance (CL) lower than after 2D3: on average, relative to control article 2D3; for AUCinf / C0: serum
Experimental: The pharmacokinetic profile of this 2D3-9GS-EXP56E4 Nanobody construct (“construct” or “test item” hereafter) was analysed in male cynomolgus monkeys of approximately 3 to 4 years old and was compared to the 2D3 control (“control” or “negative control” hereafter). The construct and the control were each injected in three monkeys. Both the construct and the control were administered at a dose of 2 mg/kg via intravenous infusion. Blood samples were taken at predose, 5 min, 20 min, 1 h, 2 h, 4 h, 8 h, and 16 h after administration and at test days 2, 3, 5, 7, 9, 12, 15, 18, 21, 24, 27, 30, 33, 36, 39, 42, 45, 48, 51, 54, and 57 after the start of the infusion. In order to obtain at least 0.25 mL serum per animal per sampling time, a sufficient volume of whole blood was withdrawn per sampling time and the serum was isolated after 1 h of incubation at 37° C. The serum samples were stored at −80° C.
Serum samples were tested for serum levels of construct and the control, respectively, using the following ELISA assay.
96-well microtiter plates (Maxisorp, Nunc, Wiesbaden, Germany) were coated for 1 hour at 37° C. with Recombinant Human ErbB2/Fc Chimera, C F (R&D Systems, Minneapolis) in PBS at 3 μg/mL for the negative control and 4.5 μg/mL for the test item. Wells were aspirated and blocked for 30 minutes at room temperature (RT) with SuperBlock®T20 PBS (Pierce, Rockford, Ill.). After this blocking step, wells were washed with PBS-0.05% Tween20.
Preparations for the standards, QC samples and dilutions of the test samples were performed in a non-coated (polypropylene) plate.
Standard curve and QC-samples: Solutions at the required concentrations were prepared in PBS 0.1% casein and spiked into 100% monkey serum. To prepare standards and QC samples, a 1/10 dilution of the pure monkey serum dilutions was made in PBS-0.1% casein.
Test samples: Dilution factors for the test samples were estimated, and varied from 1/10 to 1/500. Samples were diluted 1/10 in PBS 0.1% casein in a first step, and if needed, further dilution was done in PBS 0.1% casein containing 10% monkey serum. These sample dilutions were further serially diluted 1/5 in PBS 0.1% casein with 10% monkey serum over 2 wells.
Standards, QC samples and the 1/5 dilutions of the test samples were transferred onto the coated plate and incubated for 1 hour at RT. Afterwards the plates were washed and rabbit polyclonal anti-VHH K1, purified against protein A and Her2/Fc depleted, was added at 1 μg/mL in PBS 0.1% casein, and incubated for 1 hour at RT. After washing a 1/2000 dilution in PBS 0.1% casein of horse radish peroxidase labelled goat anti-rabbit (Dakocytomation, Denmark) was added to the plate and incubated for 30 minutes at RT. This enzyme catalyzes a chemical reaction with the substrate sTMB (3,3′,5,5′-tetramethylbenzidine, SDT reagents, Brussels, Belgium), which results in a colorimetric change. After stopping this reaction after 15 minutes using HCl (1N), the intensity of the colour was measured by a spectrophotometer, which determines the optical density of the reaction product, using a 450 nm wavelength of light.
The concentration of the construct and the control in the serum samples was determined towards a standard curve of the construct and the control, respectively. The concentration determination was performed using the sigmoidal dose-response curve with variable slope. All serum samples were tested minimally in duplicate. Average values were reported. For each sample standard deviations and precision between the different results was calculated.
For blood sampling and processing, the pharmacokinetic profile of the constructs (2D3-9GS-EXP56E4 and 2D3-9GS-EXP59C2) and the negative control 2D3 were determined in male Cynomolgus monkeys of approximately 3 to 4 years old and was compared to that of the control (2D3). The constructs and the control were administered to three monkeys at a dose of 2 mg/kg by intravenous bolus injection. […]

[6] = biological target: Cynomolgus monkey serum albumin (Macaca fascicularis, UniProt A2V9Z4); assay: Surface plasmon resonance (BIAcore 3000) of 2D3-9GS-56E4 and 2D3-9GS-59C2, Example 11; type: binding; settings: for ka: untagged constructs
Experimental: (§2) The binding was determined in BIAcore™ 3000, by injecting concentration series of the fusion proteins ranging from 2 μM to 200 nM on a CM5 chip coated with ˜3000 RU HSA or CSA. Coating of the chip (CM5) was performed by amine coupling using NHS/EDC for activation and ethanolamine for deactivation (Biacore amine coupling kit). HBS-EP was used as flow buffer at a rate of 45 μl min-1. 90 μl of sample was injected for 120 s.

[7] = biological target: T1, human serum albumin; assay: as above; type: binding
Experimental: as §2

[8] = i.v. bolus 2 mg/kg, male Cynomolgus monkey, mean n = 3

Sequence of Cynomolgus monkey serum albumin (A2V9Z4 25-608): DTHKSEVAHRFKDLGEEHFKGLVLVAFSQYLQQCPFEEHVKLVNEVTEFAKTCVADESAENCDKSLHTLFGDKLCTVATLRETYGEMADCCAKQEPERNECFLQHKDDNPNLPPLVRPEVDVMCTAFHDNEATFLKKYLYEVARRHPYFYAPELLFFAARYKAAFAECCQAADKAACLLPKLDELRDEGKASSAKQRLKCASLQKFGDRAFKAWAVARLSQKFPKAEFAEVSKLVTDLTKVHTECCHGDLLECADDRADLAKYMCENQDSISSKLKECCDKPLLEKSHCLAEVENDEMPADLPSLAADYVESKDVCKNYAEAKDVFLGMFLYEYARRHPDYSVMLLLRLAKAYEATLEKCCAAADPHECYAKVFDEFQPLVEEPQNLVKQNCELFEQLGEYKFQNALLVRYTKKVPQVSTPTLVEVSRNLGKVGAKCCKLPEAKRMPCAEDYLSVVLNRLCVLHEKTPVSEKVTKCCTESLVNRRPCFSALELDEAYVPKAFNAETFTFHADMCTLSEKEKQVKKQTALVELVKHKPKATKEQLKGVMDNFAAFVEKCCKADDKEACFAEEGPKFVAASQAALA

| Molecule | binding to HSA compared to the amino acid sequence of SEQ ID NO: 1 [2] | Vdss [5, 8] [L/kg] | exposure higher and total body clearance (CL) lower than after 2D3 [5] [fold] | mean Vdss lower compared to 2D3 ([5]; relative to 2D3) [fold] | AUCinf [5, 8] [µg·h/mL] | C0 [5, 8] [µg/mL] | koff (dissociation rate constant) [6] [s⁻¹] | ka [6] | also measured |
| --- | --- | --- | --- | --- | --- | --- | --- | --- | --- |
| AAARYWDYDVFGGGTPVGGAAA [peptide of SEQ ID NO: 143, based on EXP56E4 with an additional N-terminal alanine and three C-terminal alanine residues] | – | – | – | – | – | – | – | – | binding site on human serum albumin [1]: binds in a deep subpocket of domain I of human serum albumin |
| AAPYRDYDVFGGGTPRGE [56 F2] | stronger binding | – | – | – | – | – | – | – | – |
| AAYYYDYDVFGGGTPGGE [56 E2] | stronger binding | – | – | – | – | – | – | – | – |
| B1 | – | – | – | – | – | – | – | – | specific binding to irrelevant protein [3]: no specific binding was detected; binding to HSA (surface plasmon resonance, FIG. 5) ([4]; 1 μM and 5 μM injected, comparison with 2D3-17D12 fusion protein): improved binding; ka ([4]; CM5 chip ~7000 RU HSA): 7570 M⁻¹ s⁻¹; kd ([4]; CM5 chip ~7000 RU HSA): 0.0093 s⁻¹ |
| B2 | – | 0.0503 | 23 | 2.3 | 458 | 66.8 | 0.00847 | 1.71E+04 1/ms | Terminal Half-life ([5]; cynomolgus monkeys, 2 mg/kg intravenous infusion, Table IV): 8.54 ± 0.79 h; t½ (terminal half-life) ([5]; i.v. bolus 2 mg/kg, male Cynomolgus monkey, mean n = 3, 2 mg/kg): 8.54 h; terminal half-life (t½) increase relative to 2D3 ([5]; relative to 2D3): 4.2 fold; Kd ([7]; dissociation rate): 0.00497 s⁻¹; Kd ([7]; read-out: KD): 342 nM; ka ([7]; untagged constructs): 1.04E+04 1/ms |
| B3 | – | 0.0455 | 77 | 2.6 | 1540 | 62.5 | 0.00247 | 8.98E+03 1/ms | – |
